# Test results reported in the supplement of paper PMC9112550, “Optimization of the antimicrobial peptide Bac7 by deep mutational scanning” (BMC Biology, 2022).
# Tested on: Escherichia coli TOP10
# Test: shrunken log2 fold change of peptide-encoding DNA abundance (4.5 h post-induction vs induction); higher = less antimicrobial activity (less host growth inhibition)
# Conditions: time post-induction: 4.5 h; library: site-saturation at positions 5, 18, 19, 20
# 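Also: peptides expressed intracellularly from a pBAD plasmid library in pooled LB shake-flask culture, induced with 0.3% L-arabinose, DNA abundance read by NGS, three biological replicates, DESeq2 with apeglm shrinkage.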
row,Sequence,shrunken log2 fold change
1,RRIRVRPPRLPRPRPRPWHFPRP,-0.0232
2,RRIRNRPPRLPRPRPRPEGCPRP,-0.0205
3,RRIRNRPPRLPRPRPRPKPTPRP,0.133
4,RRIRARPPRLPRPRPRPWYGPRP,-0.634
5,RRIRCRPPRLPRPRPRPGWPPRP,0.63
6,RRIRLRPPRLPRPRPRPSAWPRP,-0.0766
7,RRIRVRPPRLPRPRPRPAYEPRP,0.0112
8,RRIRWRPPRLPRPRPRPIMCPRP,-0.0807
9,RRIRRRPPRLPRPRPRPHTCPRP,0.0847
10,RRIRERPPRLPRPRPRPHGPPRP,0.139
11,RRIRWRPPRLPRPRPRPWQRPRP,0.551
12,RRIRPRPPRLPRPRPRPDVWPRP,0.266
13,RRIRMRPPRLPRPRPRPHNGPRP,-0.337
14,RRIRYRPPRLPRPRPRPQTPPRP,-0.203
15,RRIRRRPPRLPRPRPRPANGPRP,-0.164
16,RRIRNRPPRLPRPRPRPDWSPRP,-0.256
17,RRIRCRPPRLPRPRPRPQCPPRP,-0.399
18,RRIRSRPPRLPRPRPRPNIWPRP,-0.0665
19,RRIRFRPPRLPRPRPRPWIFPRP,-0.00568
20,RRIRCRPPRLPRPRPRPELLPRP,-0.0954
21,RRIRFRPPRLPRPRPRPAAQPRP,0.122
22,RRIRVRPPRLPRPRPRPDMLPRP,-0.024
23,RRIRKRPPRLPRPRPRPFQRPRP,-0.0265
24,RRIRMRPPRLPRPRPRPKPNPRP,0.954
25,RRIRRRPPRLPRPRPRPCRFPRP,-0.0495

row,Sequence,shrunken log2 fold change
1,RRIRYRPPRLPRPRPRPGAVPRP,0.929
2,RRIRYRPPRLPRPRPRPDGRPRP,-0.154
3,RRIRQRPPRLPRPRPRPVKRPRP,0.103
4,RRIRHRPPRLPRPRPRPWPTPRP,0.103
5,RRIRERPPRLPRPRPRPQFPPRP,-0.253
6,RRIRIRPPRLPRPRPRPFQRPRP,-0.0107
7,RRIRWRPPRLPRPRPRPRQVPRP,0.16
8,RRIRWRPPRLPRPRPRPECCPRP,1.22
9,RRIRARPPRLPRPRPRPEVIPRP,0.349
10,RRIRDRPPRLPRPRPRPTKWPRP,0.0286
11,RRIRTRPPRLPRPRPRPFYEPRP,-0.518
12,RRIRKRPPRLPRPRPRPHMTPRP,0.0202
13,RRIRFRPPRLPRPRPRPDYHPRP,-0.935
14,RRIRARPPRLPRPRPRPKVCPRP,-0.132
15,RRIRMRPPRLPRPRPRPTRIPRP,0.447
16,RRIRFRPPRLPRPRPRPMFQPRP,-0.336
17,RRIRCRPPRLPRPRPRPYIHPRP,-1.11
18,RRIRTRPPRLPRPRPRPQHYPRP,-0.691
19,RRIRFRPPRLPRPRPRPMGRPRP,0.103
20,RRIRYRPPRLPRPRPRPPCVPRP,0.0199
21,RRIRSRPPRLPRPRPRPFTPPRP,-0.0114
22,RRIRIRPPRLPRPRPRPYGEPRP,-0.148
23,RRIRDRPPRLPRPRPRPCRGPRP,-0.138
24,RRIRKRPPRLPRPRPRPNPTPRP,0.249
25,RRIRIRPPRLPRPRPRPHCFPRP,-0.824

row,Sequence,shrunken log2 fold change
1,RRIRVRPPRLPRPRPRPWYPPRP,-0.884
2,RRIRKRPPRLPRPRPRPRVEPRP,0.144
3,RRIRERPPRLPRPRPRPHFFPRP,-0.154
4,RRIRTRPPRLPRPRPRPFFLPRP,-0.299
5,RRIRLRPPRLPRPRPRPHRPPRP,-0.189
6,RRIRMRPPRLPRPRPRPNETPRP,-0.0123
7,RRIRNRPPRLPRPRPRPGNWPRP,0.0557
8,RRIRGRPPRLPRPRPRPDLPPRP,0.921
9,RRIRPRPPRLPRPRPRPKFDPRP,0.163
10,RRIRVRPPRLPRPRPRPSMRPRP,0.477
11,RRIRPRPPRLPRPRPRPLCKPRP,0.041
12,RRIRQRPPRLPRPRPRPQFNPRP,-0.6
13,RRIRWRPPRLPRPRPRPNFNPRP,-0.198
14,RRIRLRPPRLPRPRPRPHMLPRP,-0.264
15,RRIRERPPRLPRPRPRPTLMPRP,0.0249
16,RRIRQRPPRLPRPRPRPMSCPRP,0.029
17,RRIRQRPPRLPRPRPRPLYNPRP,-0.796
18,RRIRGRPPRLPRPRPRPKENPRP,0.791
19,RRIRERPPRLPRPRPRPNLHPRP,0.504
20,RRIRLRPPRLPRPRPRPGLMPRP,-0.0199
21,RRIRSRPPRLPRPRPRPSWYPRP,-0.745
22,RRIRMRPPRLPRPRPRPNPCPRP,0.169
23,RRIRKRPPRLPRPRPRPELMPRP,1.24
24,RRIRTRPPRLPRPRPRPYVNPRP,-0.189
25,RRIRSRPPRLPRPRPRPFGSPRP,-0.178
